Reference: the supplement of paper PMC9170038

System: MS2 coat protein
Assay: apparent KD of MS2 coat protein; designed switch direction (-1 OFF switch, 1 ON switch): -1; higher = weaker reporter binding
Outline: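 Designed RNA switches were transcribed on Illumina chips by stalled E. coli RNA polymerase and titrated with SNAP-549-labelled MS2 coat protein from 0.7 or 1.5 nM, doubling to 3 µM. Step length ran from 0.8–1.5 h at the lowest concentration to 10–20 min at the highest. The apparent KD is the median over clusters for each design, from curve-fitted normalised cluster fluorescence.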

[1] = input ligand: microRNA oligo, concentration not stated
[2] = Eterna round: R95, input ligand: FMN 200 uM
[3] = Eterna round: R95, input ligand: microRNA oligo, concentration not stated
[4] = Eterna round: R95, input ligand: none

| Sequence | apparent KD of MS2 coat protein (input ligand: FMN 200 uM) [nM] | apparent KD of MS2 coat protein (input ligand: none) [nM] | other results |
| --- | --- | --- | --- |
| GGAUGAGAGCAGGAUAUCUUAUAAAUGUAUGAAAGAGAAGGGCUCACAUGAGGAUCACCCAUGUGGUCCUAGAU [jl-ex6-4.73 jandersonlee mod] (Eterna round: R97, puzzle: Exclusion 6) | 280 | 35.9 | – |
| GGAUUACAUGAGGAUCACCCAUGUGAGGAUAUCGAUGUCCAGUAAUACGUGCGGGACUCGAGAAGGCACUUGGA [salish99-ex1-70] (Eterna round: R96, puzzle: Exclusion 1) | 432 | 96.3 | apparent KD of MS2 coat protein [1]: 80.7 nM |
| GGAUUUACUGAGGAUAUUGCAUCACCCGACUGAUAAGAAGGCAGAACAUGAGGAUCACCCAUGUGGGUACUCAA [Bingo-Bango-5] (Eterna round: R97, puzzle: Exclusion 6) | 95 | 105 | – |
| GGAUUUCGAGGAUAUACACGCAAAUAGGUGUAUCCUUUAGCACAUGAGGAUCACCCAUGUAGAAGGCGGGUACU [Eternabot (L1) Solution 19] (Eterna round: R97, puzzle: Exclusion 2) | 136 | 150 | – |
| GGCACACAUGAGGAUCACCCAUGUCAGGAUAUGUGGCGAUCGUCGAUAGACGAUAGCCACAGAAGGGACAGGCC [Mat - Exclusion 1 - Eli Mod - D22] (Eterna round: R97, puzzle: Exclusion 1) | 110 | 69.9 | – |
| GGCACACAUGAGGAUCACCCAUGUGAGGAUAUGGUGCGAUCGUCGAAAGACGAUAGCACUAGAAGGCACAUGCC [Eli x1 4.06] (Eterna round: R97, puzzle: Exclusion 1) | 28.2 | 16.1 | – |
| GGCACACAUGAGGAUCACCCAUGUGAGGAUAUGUGGCGAUCGUCGAAAGACGAUAGCCAUAGAAGGCACAUGCC [Eli x1 4.08] (Eterna round: R97, puzzle: Exclusion 1) | 32.1 | 18.1 | – |
| GGCAGACAUGAGGAUCACCCAUGUCAGGAUAUGCGGCGAAGUACAGUUAGUGCAUUUGGUAGAAGGGACAAGGA [Eternabot (L1) Solution 100] (Eterna round: R97, puzzle: Exclusion 1) | 29.8 | 32.5 | – |
| GGCAUACCACAAGCUUUUUACAUGAGGAUCACCCAUGUGGUUUUUAGUCUUAUCCCGGGCCCGAUAUCGGGCCCGGG [-33.9, -54.7, A 19%] (Eterna round: R97, puzzle: Sensor, turn-off variant 1) | 36.7 | 38.3 | – |
| GGCAUCGGAGGAUAUACUUAUGGUGAUACCCGAAGCUUUCUACUUGAGGAUCACCCAAGUAGAAGGCCGAUGCC [jl-ex2.4.81 ViennaUCT mod] (Eterna round: R97, puzzle: Exclusion 2) | 11.7 | 12.6 | – |
| GGCCCGGGAGGAUAUACAUGAGGAUCACCCAUGUUGAAGUUGAAGAUCUUCGGCUUCGGUAGAAGGCCCGGGCC [-35, -32.8 kcal, 23% A, 3, 0] (Eterna round: R97, puzzle: Exclusion 3) | 18.2 | 13.6 | – |
| GGCCGUAAUAAGGAUAUCACUAGCUUCGGCUAGUGAGAAGGUAUUACAUGAGGAUCACCCAUGUGAUCAGGCCA [E6/3-B1] (Eterna round: R97, puzzle: Exclusion 6) | 726 | 170 | – |
| GGCGCCUCAGGAUAUCAGUCUGGAUCAGAAAAGAUCCUGACUGAGAAGGGACAUGAGGAUCACCCAUGUUCGCC [Mat - Exclusion 4 - Eli Mod - D52] (Eterna round: R97, puzzle: Exclusion 4) | 17.3 | 18.4 | – |
| GGCUUGCUAGUAGGAUAUCGCUUGUACAUGAGGAUCACCCAUGUGUGAUAUGCCUACAUAGUGCGUGAGAAGGACUGCAAGCCG [Diatdiinin] (Eterna round: R96, puzzle: Exclusion NG 2) | 23.2 | 14.1 | apparent KD of MS2 coat protein [1]: 8.15 nM |
| GGGAUGUCAGGAUAUCCGAAAGUCUACCAAUACGGCAGACAGGAGAAGGGACAUGAGGAUCACCCAUGUAAAGA [Quatma] (puzzle: Exclusion 4) | – | – | apparent KD of MS2 coat protein [2]: 114 nM; apparent KD of MS2 coat protein [3]: 36.7 nM; apparent KD of MS2 coat protein [4]: 52.4 nM |
| GGGCAGGGAGGAUAUGUAUCGCACUACAUGAGGAUCACCCAUGUGCCUUUUGUGACGUGGACAGAAGGUCCUGCCG [Eternabot (L1) Solution 17] (Eterna round: R97, puzzle: Exclusion 5) | 129 | 193 | – |
| GGGCCCGGAGGAUAUACAAUGGGCCCGGGAAAUUGGGCCCUACAUGAGGAUCACCCAUGUAGAAGGCCGGGCCC [-40.2, -38.1 kcal A 24%, 5c,0] (Eterna round: R97, puzzle: Exclusion 2) | 16.1 | 12.5 | – |
| GGGCUGUCAGGAUAUGUGUGUGUGUGUGAAAGCGCGCGCGCGCAGAAGGGACAUGAGGAUCACCCAUGUGGCCC [-35.3, -34.3 kcal, A 20%, 6bis-0] (Eterna round: R97, puzzle: Exclusion 4) | 32.1 | 33 | – |

| Sequence | apparent KD of MS2 coat protein (input ligand: FMN 200 uM) [nM] | apparent KD of MS2 coat protein (input ligand: none) [nM] | other results |
| --- | --- | --- | --- |
| GGGCUUAAAGGAUAUGCAAGGAGCCACAUGAGGAUCACCCAUGUACAACCUCAGUCCCUGGUAGAAGGUUACGCAA [whoooo] (Eterna round: R97, puzzle: Exclusion 5) | 35 | 30.6 | – |
| GGGUAGUGAGGAUAUCUUGGCAAACCCGAACCUGUCAGCCAAGAGAAGGCACUUGAGGAUCACCCAAGUACAGG [Raeratti] (Eterna round: R97, puzzle: Exclusion 4) | 88.7 | 26.8 | – |
| GGGUGACAUGAGGAUCACCCAUGUCAGGAUAUGAUACUAUGUACUUCGGUACAUAGUAUCAGAAGGGACAUCCC [Ex1-3: 16] (puzzle: Exclusion 1) | – | – | apparent KD of MS2 coat protein [3]: 41.8 nM |
| GGUACUAACACGAAAGUGUUAGUACUGUAGGUUUGUGUUACAUGAGGAUCACCCAUGUCCUCAUAAGCUCGUCUUGU [JL-sv3-2.22 mat747 mod] (puzzle: Sensor v3, turn-off variant 2) | – | – | apparent KD of MS2 coat protein [2]: 306 nM; apparent KD of MS2 coat protein [3]: 246 nM; apparent KD of MS2 coat protein [4]: 347 nM |
| GGUACUAUCACCUGAGUGGUAGUGCCAUAAGCUUGUGAUACAUGAGGAUCACCCAUGUCCUCAUUUGCUCGUCUUAU [JL-sv3-2.27 JL mod] (puzzle: Sensor v3, turn-off variant 2) | – | – | apparent KD of MS2 coat protein [2]: 486 nM; apparent KD of MS2 coat protein [3]: 394 nM |
| GGUAGAGAGCAGGAUAUCUUGGGUAAGUAUCGUAGAGAAGGGCUCACAUGAGGAUCACCCAUGUGGUCCAAGAU [JL Dibiri mod 05] (puzzle: Exclusion 6) | – | – | apparent KD of MS2 coat protein [3]: 14.2 nM |
| GGUCAACGUGUGAGGAUAUGUCAACCCUGUGGAAAGCAGAAGGCACAUGAGGAUCACCCAUGUAAUAAGAAAAC [Soasois] (Eterna round: R97, puzzle: Brourd's mod of Exclusion 4) | 29.9 | 262 | – |
| GGUCCACAUGAGGAUCACCCAUGUUAGGAUAUCUCGCCCGAGCCCAUAUGGGCCAGGCAGAGAAGGAAUGUGAA [Quertixees] (puzzle: Exclusion 1) | – | – | apparent KD of MS2 coat protein [3]: 18.8 nM |
| GGUCCACAUGAGGAUCACCCAUGUUAGGAUAUCUCGUCCGAGCAGUUAUGGGCCGGGCAGAGAAGGAAUGUGAA [Orbibibi] (puzzle: Exclusion 1) | – | – | apparent KD of MS2 coat protein [3]: 25.7 nM |
| GGUCGACAUGAGGAUCACCCAUGUCAGGAUAUCGUCACUGGAGCCUCGGCUCCAGUGACGAGAAGGGAUAUGAU [E1/17-A2] (Eterna round: R97, puzzle: Exclusion 1) | 41.9 | 43.9 | – |
| GGUCUGCGAGGAUAUACAUGAGGAUCACCCAUGUGCGAGAUACUAGUGAGGUCGAUUGGUAGAAGGCGCGGACA [Mat - Exclusion 3 - Mod of JL D84] (puzzle: Exclusion 3) | – | – | apparent KD of MS2 coat protein [3]: 90.4 nM |
| GGUGAAGCAGGAUAUGUAUCGAUAUACAUGAGGAUCACCCAUGUCAUGUUUGAAUCGCAUAUAGAAGGGCUUCACC [Exclusion 5 (FMN-MS2 slide)] (Eterna round: R97, puzzle: Exclusion 5) | 58.1 | 20.8 | – |
| GGUGAGCUAGGAUAUGCUUUGGGCACGCAUUCCUUCGAUAAACUUGAGGAUCACCCAAGUAGAAGGAGCUUGCC [salish99_ex2_r4_030] (Eterna round: R97, puzzle: Exclusion 2) | 18.1 | 12.9 | – |
| GGUGAGCUAGGAUAUGCUUUGGGCUCGCUUUCCUUCGAUAUACUUGAGGAUCACCCAAGUAGAAGGAGCUUGCC [salish99_ex2_r4_034] (Eterna round: R97, puzzle: Exclusion 2) | 11.1 | 11.2 | – |
| GGUGAGCUAGGAUAUGCUUUGGGCUCGCUUUCCUUCGAUUUACUUGAGGAUCACCCAAGUAGAAGGAGCUUGCC [salish99_ex2_r4_035] (Eterna round: R97, puzzle: Exclusion 2) | 13.5 | 12.9 | – |
| GGUGCGAGUGUGAGGAUAUGCUGGUCGUAAGAUCAGCAGAAGGCACAUGAGGAUCACCCAUGUGAAAACGUACC [Mat - Exclusion 4 - JL Mod - D75] (puzzle: Brourd's mod of Exclusion 4) | – | – | apparent KD of MS2 coat protein [3]: 18.8 nM |
| GGUGCGUUUGUGAGGAUAUGCUGGUCCUUGGUUCGGCAGAAGGCACAUGAGGAUCACCCAUGUGGUGUCGCACC [salish99_Bmod_Ex4_049] (puzzle: Brourd's mod of Exclusion 4) | – | – | apparent KD of MS2 coat protein [3]: 65.9 nM |
| GGUGGGCUAGGAUAUGCUUUGGGCAGGCAUUCCUUCGAUAAACUUGAGGAUCACCCAAGUAGAAGGAGCUUGCC [salish99_ex2_r4_025] (Eterna round: R97, puzzle: Exclusion 2) | 10.8 | 10.7 | – |
